Assay results reported in patent US20260001947A1.

Target: human PD-L1 extracellular domain protein displayed on the membrane of MC38-PD-L1 cells (human) (UniProt Q9NZQ7)
Assay: flow cytometry on MC38-PD-L1 cells, directly PE-labelled antibody, 0.5 µl; Blank-PE shows 0.13% in the same gate

Sequence of human PD-L1 extracellular domain protein displayed on the membrane of MC38-PD-L1 cells (human) (Q9NZQ7 19-238): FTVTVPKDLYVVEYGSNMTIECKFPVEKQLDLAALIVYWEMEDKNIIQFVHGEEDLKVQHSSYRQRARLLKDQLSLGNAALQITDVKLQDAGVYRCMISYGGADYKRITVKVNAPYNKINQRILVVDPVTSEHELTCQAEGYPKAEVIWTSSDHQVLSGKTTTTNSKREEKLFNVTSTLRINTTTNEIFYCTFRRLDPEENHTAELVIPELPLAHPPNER

For “PE anti-human PD-L1 (BioLegend, clone number: 29E-2A3) (antibody)”, the % of cells in gate M6-2 was 99.4%.
